Data taken from patent US20220162684.
Read-outs that look alike come from different tables or passages of the source.

Key:
[1] = tested on: HHH peptide (biotinylated histidine trimer) (synthetic); settings: quantum dot multivalent probe
[2] = tested on: HHH peptide (biotinylated histidine trimer) (synthetic)

Question: “CAAGCAGAAGACGGCATACGAGATCATGCTTCCCCAGGGAGATGGTTTGCCGGTGGGCAGGTTTAGGGTCTGCTCGGGATTGCGGAGGAACATGCGTCGCAAACGTGTAGATCTCGGTGGTCGCCGTATCATT [P7-B1-P5 aptamer]” was tested. Which EC50 [1] did it give?
Answer: 60 nM

Question: What about the EC50 ([2]; single aptamer on SureLight APC) of the same sequence?
Answer: 2.3 nM

Question: And the EC50 ([2]; single aptamer on streptavidin-APC)?
Answer: 29.9 nM

Question: What about the EC50 ([2]; single aptamer on streptavidin-Alexa Fluor 647) of the same sequence?
Answer: 28 nM
